According to the MegaScale stability set (Tsuboyama et al. 2023):

B1: 2M8U (parent)
chain: TKAQVIEAFKVFDRDGNGYVTVDYLRKVLNELGDMMPADEIEEMIYEADPQNSGYVQYETFVGMLFL

Variants of: B1
Test: folding stability dG (cDNA display proteolysis); higher = more stable
Details: PBS, room temperature

| Variant | folding stability dG [kcal/mol] |
| --- | --- |
| K2D | 2.24 |
| K2S | 2.98 |
| K2L | 3.3 |
| K2P | 3.2 |
| Y46W | 3.56 |
| Y46R | 3.66 |
| Y46H | 3.62 |
| Y46K | 3.64 |
| Y46A | 3.52 |
| Y46P | 2.82 |
| A3V | 3.2 |
| A3H | 3.22 |
| A3L | 3.21 |
| A3Q | 3.56 |
| A3T | 3.14 |
| V62I | 3.29 |
| V62F | 2.15 |
| V62Q | 1.94 |
| V62R | 1.93 |
| V62H | 1.7 |
| V62C | 2.48 |

| Variant | folding stability dG [kcal/mol] |
| --- | --- |
| V62M | 2.67 |
| I41T | 2.72 |
| I41F | 3.5 |
| I41G | 2.29 |
| I41V | 3.4 |
| I41Y | 3.35 |
| V56F | 2.62 |
| V56T | 2.14 |
| V56M | 2.55 |
| V56W | 2.49 |
| V56C | 2.17 |
| V56S | 2.17 |
| M64Q | 3.53 |
| M64T | 3.29 |
| M64E | 3.29 |
| M64C | 3.37 |
| M64S | 3.08 |
| M64H | 3.69 |
| G16C | 2.92 |
| G16A | 2.96 |
| G16R | 2.65 |

| Variant | folding stability dG [kcal/mol] |
| --- | --- |
| G16P | 2.11 |
| G16E | 2.93 |
| F66W | 3.19 |
| F66G | 2.57 |
| F66T | 2.83 |
| F66H | 2.67 |
| N52T | 3.32 |
| N52Y | 3.31 |
| N52I | 3.03 |
| N52P | 2.43 |
| L25H | 1.16 |
| L25A | 3.2 |
| L25Q | 2.02 |
| L25N | 1.47 |
| L25T | 2.65 |
| G18A | 2.63 |
| G18C | 2.87 |
| G18I | 2.57 |
| G18H | 2.17 |
| G18T | 2.38 |
| T60Y | 3.43 |

| Variant | folding stability dG [kcal/mol] |
| --- | --- |
| T60F | 3.32 |
| T60R | 3.68 |
| E59S | 3.05 |
| E59A | 3.15 |
| E59T | 3.12 |
| E59L | 3.47 |
| E59F | 3.54 |
| E59R | 3.06 |
| S53E | 3.09 |
| S53Y | 3.2 |
| S53P | 2.4 |
| S53M | 3.23 |
| D23F | 4.04 |
| D23Q | 3.65 |
| D23R | 3.33 |
| D23G | 3.56 |
| M35Y | 3.33 |
| M35H | 3.01 |
| M35G | 2.95 |
| M35R | 3.02 |
